Reference: article PMC10121563 (2023)

T1: GST::OsABI5 fusion protein (Oryza sativa subsp. japonica (Rice), UniProt Q8RZ35)
T1 chain: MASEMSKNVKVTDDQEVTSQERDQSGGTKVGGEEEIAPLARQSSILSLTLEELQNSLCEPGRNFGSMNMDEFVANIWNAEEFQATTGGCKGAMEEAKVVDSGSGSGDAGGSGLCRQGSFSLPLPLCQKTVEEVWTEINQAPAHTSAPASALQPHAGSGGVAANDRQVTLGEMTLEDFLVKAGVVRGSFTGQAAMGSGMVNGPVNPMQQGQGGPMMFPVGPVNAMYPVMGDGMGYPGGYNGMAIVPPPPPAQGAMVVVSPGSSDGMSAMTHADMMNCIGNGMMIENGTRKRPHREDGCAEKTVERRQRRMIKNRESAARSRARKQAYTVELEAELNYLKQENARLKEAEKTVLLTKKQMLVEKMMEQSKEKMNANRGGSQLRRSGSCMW


Molecular target: T1, GST::OsABI5 fusion protein
Assay: GST pull-down

| binding result | Binder |
| --- | --- |
| binds | MBP::OsJAZ6 fusion protein (protein) MASAKSGERGSSSFAMACSLLSRYVRQNGAAAGELGLGIRGEADANKGKETMELFPQNSGFGSEAAAVKETPDAREQEKRQLTIFYGGKVLVFDDFPAEKAKDLMQMASKSSSTAQNCVLLPSSATATVADNTKVSAVPAPASALPVAQANAPKPVRPNAADLPQARKASLHRFLEKRKDRLQAKAPYQGSPSDASPVKKELQESQPWLGLGPQVAAPDLSLRQESSQ |
| binds | MBP::OsJAZ7 fusion protein (protein) MAASARPVGVGGERATSFAMACSLLSRYVRQNGAAAAELGLGIRGEGEAPRAAPATMSLLPGEAERKKETMELFPQSAGFGQQDAITADSAADAREQEPEKRQLTIFYGGKVLVFNDFPADKAKGLMQLASKGSPVAPQNAAAPAPAAVTDNTKAPMAVPAPVSSLPTAQADAQKPARANASDMPIARKASLHRFLEKRKDRLNAKTPYQASPSDATPVKKEPESQPWLGLGPNAVVKPIERGQ |
